Measurements from patent publication US20150210998.

Experiments:
[1] = target: UbcH7˜125I-ubiquitin thioester, P68036
Chain of UbcH7˜125I-ubiquitin thioester, P68036 (P68036 whole entry, looked up): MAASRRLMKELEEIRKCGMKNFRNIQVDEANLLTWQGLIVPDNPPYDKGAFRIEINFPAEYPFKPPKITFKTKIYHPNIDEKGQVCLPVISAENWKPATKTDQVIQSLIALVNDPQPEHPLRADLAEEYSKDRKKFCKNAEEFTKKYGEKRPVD

B1: E6AP ligase Hect domain (GST removed by thrombin) (protein)
chain: INEPLNEVLEMDKDYTFFKVETENKFSFMTCPFILNAVTKNLGLYYDNRIRMYSERRITVLYSLVQGQQLNPYLRLKVRRDHIIDDALVRLEMIAMENPADLKKQLYVEFEGEQGVDEGGVSKEFFQLVVEEIFNPDIGMFTYDESTKLFWFNPSSFETEGQFTLIGIVLGLAIYNNCILDVHFPMVVYRKLMGKKGTFRDLGDSHPVLYQSLKDLLEYEGNVEDDMMITFQISQTDLFGNPMMYDLKENGDKIPITNENRKEFVNLYSDYILNKSVEKQFKAFRRGFHMVTNESPLKYLFRPEEIELLICGSRNLDFQALEETTEYDGGYTRDSVLIREFWEIVHSFTDEQKRLFLQFTTGTDRAPVGGLGKLKMIIAKNGPDTERLPTSHTCFNVLLLPEY
- Km- [1]: 0.091 µM

B2: GST-E6AP ligase Hect domain (protein)
chain: INEPLNEVLEMDKDYTFFKVETENKFSFMTCPFILNAVTKNLGLYYDNRIRMYSERRITVLYSLVQGQQLNPYLRLKVRRDHIIDDALVRLEMIAMENPADLKKQLYVEFEGEQGVDEGGVSKEFFQLVVEEIFNPDIGMFTYDESTKLFWFNPSSFETEGQFTLIGIVLGLAIYNNCILDVHFPMVVYRKLMGKKGTFRDLGDSHPVLYQSLKDLLEYEGNVEDDMMITFQISQTDLFGNPMMYDLKENGDKIPITNENRKEFVNLYSDYILNKSVEKQFKAFRRGFHMVTNESPLKYLFRPEEIELLICGSRNLDFQALEETTEYDGGYTRDSVLIREFWEIVHSFTDEQKRLFLQFTTGTDRAPVGGLGKLKMIIAKNGPDTERLPTSHTCFNVLLLPEY
- Km- [1]: 0.089 µM

B3: GST-E6APK688A (protein)
chain: MATACKRSGEPQSDDIEASRMKRAAAKHLIERYYHQLTEGCGNEACTNEFCASCPTFLRMDNNAAAIKALELYKINAKLCDPHPSKKGASSAYLENSKGAPNNSCSEIKMNKKGARIDFKDVTYLTEEKVYEILELCREREDYSPLIRVIGRVFSSAEALVQSFRKVKQHTKEELKSLQAKDEDKDEDEKEKAACSAAAMEEDSEASSSRIGDSSQGDNNLQKLGPDDVSVDIDAIRRVYTRLLSNEKIETAFLNALVYLSPNVECDLTYHNVYSRDPNYLNLFIIVMENRNLHSPEYLEMALPLFCKAMSKLPLAAQGKLIRLWSKYNADQIRRMMETFQQLITYKVISNEFNSRNLVNDDDAIVAASKCLKMVYYANVVGGEVDTNHNEEDDEEPIPESSELTLQELLGEERRNKKGPRVDPLETELGVKTLDCRKPLIPFEEFINEPLNEVLEMDKDYTFFKVETENKFSFMTCPFILNAVTKNLGLYYDNRIRMYSERRITVLYSLVQGQQLNPYLRLKVRRDHIIDDALVRLEMIAMENPADLKKQLYVEFEGEQGVDEGGVSKEFFQLVVEEIFNPDIGMFTYDESTKLFWFNPSSFETEGQFTLIGIVLGLAIYNNCILDVHFPMVVYRKLMGKKGTFRDLGDSHPVLYQSLKDLLEYEGNVEDDMMITFQISQTDLFGNPMMYDLKENGDKIPITNENRAEFVNLYSDYILNKSVEKQFKAFRRGFHMVTNESPLKYLFRPEEIELLICGSRNLDFQALEETTEYDGGYTRDSVLIREFWEIVHSFTDEQKRLFLQFTTGTDRAPVGGLGKLKMIIAKNGPDTERLPTSHTCFNVLLLPEYSSKEKLKERLLKAITYAKGFGML
- Km- [1]: 0.039 µM

B4: GST-E6APD543A (protein)
chain: MATACKRSGEPQSDDIEASRMKRAAAKHLIERYYHQLTEGCGNEACTNEFCASCPTFLRMDNNAAAIKALELYKINAKLCDPHPSKKGASSAYLENSKGAPNNSCSEIKMNKKGARIDFKDVTYLTEEKVYEILELCREREDYSPLIRVIGRVFSSAEALVQSFRKVKQHTKEELKSLQAKDEDKDEDEKEKAACSAAAMEEDSEASSSRIGDSSQGDNNLQKLGPDDVSVDIDAIRRVYTRLLSNEKIETAFLNALVYLSPNVECDLTYHNVYSRDPNYLNLFIIVMENRNLHSPEYLEMALPLFCKAMSKLPLAAQGKLIRLWSKYNADQIRRMMETFQQLITYKVISNEFNSRNLVNDDDAIVAASKCLKMVYYANVVGGEVDTNHNEEDDEEPIPESSELTLQELLGEERRNKKGPRVDPLETELGVKTLDCRKPLIPFEEFINEPLNEVLEMDKDYTFFKVETENKFSFMTCPFILNAVTKNLGLYYDNRIRMYSERRITVLYSLVQGQQLNPYLRLKVRRDHIIDDALVRLEMIAMENPADLKKQLYVEFEGEQGVAEGGVSKEFFQLVVEEIFNPDIGMFTYDESTKLFWFNPSSFETEGQFTLIGIVLGLAIYNNCILDVHFPMVVYRKLMGKKGTFRDLGDSHPVLYQSLKDLLEYEGNVEDDMMITFQISQTDLFGNPMMYDLKENGDKIPITNENRKEFVNLYSDYILNKSVEKQFKAFRRGFHMVTNESPLKYLFRPEEIELLICGSRNLDFQALEETTEYDGGYTRDSVLIREFWEIVHSFTDEQKRLFLQFTTGTDRAPVGGLGKLKMIIAKNGPDTERLPTSHTCFNVLLLPEYSSKEKLKERLLKAITYAKGFGML
- Km- [1]: 0.54 µM

B5: GST-E6APR626A (protein)
chain: MATACKRSGEPQSDDIEASRMKRAAAKHLIERYYHQLTEGCGNEACTNEFCASCPTFLRMDNNAAAIKALELYKINAKLCDPHPSKKGASSAYLENSKGAPNNSCSEIKMNKKGARIDFKDVTYLTEEKVYEILELCREREDYSPLIRVIGRVFSSAEALVQSFRKVKQHTKEELKSLQAKDEDKDEDEKEKAACSAAAMEEDSEASSSRIGDSSQGDNNLQKLGPDDVSVDIDAIRRVYTRLLSNEKIETAFLNALVYLSPNVECDLTYHNVYSRDPNYLNLFIIVMENRNLHSPEYLEMALPLFCKAMSKLPLAAQGKLIRLWSKYNADQIRRMMETFQQLITYKVISNEFNSRNLVNDDDAIVAASKCLKMVYYANVVGGEVDTNHNEEDDEEPIPESSELTLQELLGEERRNKKGPRVDPLETELGVKTLDCRKPLIPFEEFINEPLNEVLEMDKDYTFFKVETENKFSFMTCPFILNAVTKNLGLYYDNRIRMYSERRITVLYSLVQGQQLNPYLRLKVRRDHIIDDALVRLEMIAMENPADLKKQLYVEFEGEQGVDEGGVSKEFFQLVVEEIFNPDIGMFTYDESTKLFWFNPSSFETEGQFTLIGIVLGLAIYNNCILDVHFPMVVYRKLMGKKGTFADLGDSHPVLYQSLKDLLEYEGNVEDDMMITFQISQTDLFGNPMMYDLKENGDKIPITNENRKEFVNLYSDYILNKSVEKQFKAFRRGFHMVTNESPLKYLFRPEEIELLICGSRNLDFQALEETTEYDGGYTRDSVLIREFWEIVHSFTDEQKRLFLQFTTGTDRAPVGGLGKLKMIIAKNGPDTERLPTSHTCFNVLLLPEYSSKEKLKERLLKAITYAKGFGML
- Km- [1]: 0.15 µM
- fold decrease in kcat of polyubiquitin chain formation (Q05086): decreased kcat 155-fold

B6: GST-E6APF727D (protein)
chain: MATACKRSGEPQSDDIEASRMKRAAAKHLIERYYHQLTEGCGNEACTNEFCASCPTFLRMDNNAAAIKALELYKINAKLCDPHPSKKGASSAYLENSKGAPNNSCSEIKMNKKGARIDFKDVTYLTEEKVYEILELCREREDYSPLIRVIGRVFSSAEALVQSFRKVKQHTKEELKSLQAKDEDKDEDEKEKAACSAAAMEEDSEASSSRIGDSSQGDNNLQKLGPDDVSVDIDAIRRVYTRLLSNEKIETAFLNALVYLSPNVECDLTYHNVYSRDPNYLNLFIIVMENRNLHSPEYLEMALPLFCKAMSKLPLAAQGKLIRLWSKYNADQIRRMMETFQQLITYKVISNEFNSRNLVNDDDAIVAASKCLKMVYYANVVGGEVDTNHNEEDDEEPIPESSELTLQELLGEERRNKKGPRVDPLETELGVKTLDCRKPLIPFEEFINEPLNEVLEMDKDYTFFKVETENKFSFMTCPFILNAVTKNLGLYYDNRIRMYSERRITVLYSLVQGQQLNPYLRLKVRRDHIIDDALVRLEMIAMENPADLKKQLYVEFEGEQGVDEGGVSKEFFQLVVEEIFNPDIGMFTYDESTKLFWFNPSSFETEGQFTLIGIVLGLAIYNNCILDVHFPMVVYRKLMGKKGTFRDLGDSHPVLYQSLKDLLEYEGNVEDDMMITFQISQTDLFGNPMMYDLKENGDKIPITNENRKEFVNLYSDYILNKSVEKQDKAFRRGFHMVTNESPLKYLFRPEEIELLICGSRNLDFQALEETTEYDGGYTRDSVLIREFWEIVHSFTDEQKRLFLQFTTGTDRAPVGGLGKLKMIIAKNGPDTERLPTSHTCFNVLLLPEYSSKEKLKERLLKAITYAKGFGML
- Km- [1]: 0.072 µM
- fold decrease in kcat of polyubiquitin chain formation (Q05086): 62-fold decrease in kcat

B7: GST-E6APY533A (protein)
chain: MATACKRSGEPQSDDIEASRMKRAAAKHLIERYYHQLTEGCGNEACTNEFCASCPTFLRMDNNAAAIKALELYKINAKLCDPHPSKKGASSAYLENSKGAPNNSCSEIKMNKKGARIDFKDVTYLTEEKVYEILELCREREDYSPLIRVIGRVFSSAEALVQSFRKVKQHTKEELKSLQAKDEDKDEDEKEKAACSAAAMEEDSEASSSRIGDSSQGDNNLQKLGPDDVSVDIDAIRRVYTRLLSNEKIETAFLNALVYLSPNVECDLTYHNVYSRDPNYLNLFIIVMENRNLHSPEYLEMALPLFCKAMSKLPLAAQGKLIRLWSKYNADQIRRMMETFQQLITYKVISNEFNSRNLVNDDDAIVAASKCLKMVYYANVVGGEVDTNHNEEDDEEPIPESSELTLQELLGEERRNKKGPRVDPLETELGVKTLDCRKPLIPFEEFINEPLNEVLEMDKDYTFFKVETENKFSFMTCPFILNAVTKNLGLYYDNRIRMYSERRITVLYSLVQGQQLNPYLRLKVRRDHIIDDALVRLEMIAMENPADLKKQLAVEFEGEQGVDEGGVSKEFFQLVVEEIFNPDIGMFTYDESTKLFWFNPSSFETEGQFTLIGIVLGLAIYNNCILDVHFPMVVYRKLMGKKGTFRDLGDSHPVLYQSLKDLLEYEGNVEDDMMITFQISQTDLFGNPMMYDLKENGDKIPITNENRKEFVNLYSDYILNKSVEKQFKAFRRGFHMVTNESPLKYLFRPEEIELLICGSRNLDFQALEETTEYDGGYTRDSVLIREFWEIVHSFTDEQKRLFLQFTTGTDRAPVGGLGKLKMIIAKNGPDTERLPTSHTCFNVLLLPEYSSKEKLKERLLKAITYAKGFGML
- Km- [1]: 0.04 µM
- fold decrease in kcat of polyubiquitin chain formation (Q05086): decreased kcat 10-fold
